# The supplement of paper PMC9112550, “Optimization of the antimicrobial peptide Bac7 by deep mutational scanning” (BMC Biology, 2022)
# Tested on: Escherichia coli TOP10
# Assay: shrunken log2 fold change of peptide-encoding DNA abundance (4.5 h post-induction vs induction); higher = less antimicrobial activity (less host growth inhibition)
# Conditions: time post-induction: 4.5 h; library: site-saturation at positions 5, 18, 19, 20
# 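Note: peptides expressed intracellularly from a pBAD plasmid library in pooled LB shake-flask culture, induced with 0.3% L-arabinose, DNA abundance read by NGS, three biological replicates, DESeq2 with apeglm shrinkage.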
row,Sequence,shrunken log2 fold change
1,RRIRPRPPRLPRPRPRPHIGPRP,0.0387
2,RRIRQRPPRLPRPRPRPWPIPRP,-0.152
3,RRIRERPPRLPRPRPRPISIPRP,-0.258
4,RRIRCRPPRLPRPRPRPPKHPRP,0.203
5,RRIRRRPPRLPRPRPRPTHHPRP,0.8
6,RRIRERPPRLPRPRPRPVRSPRP,0.0119
7,RRIRKRPPRLPRPRPRPGRMPRP,0.554
8,RRIRQRPPRLPRPRPRPTTYPRP,-0.282
9,RRIRMRPPRLPRPRPRPYASPRP,-0.0515
10,RRIRVRPPRLPRPRPRPIKYPRP,-0.169
11,RRIRSRPPRLPRPRPRPELNPRP,0.399
12,RRIRKRPPRLPRPRPRPRDYPRP,0.0161
13,RRIRTRPPRLPRPRPRPYPGPRP,-0.164
14,RRIRRRPPRLPRPRPRPRDRPRP,0.713
15,RRIRQRPPRLPRPRPRPYCTPRP,-0.863
16,RRIRERPPRLPRPRPRPFQIPRP,-0.145
17,RRIRYRPPRLPRPRPRPVWCPRP,-0.0399
18,RRIRFRPPRLPRPRPRPTNLPRP,-0.291
19,RRIRGRPPRLPRPRPRPKIKPRP,0.564
20,RRIRNRPPRLPRPRPRPASYPRP,-0.148
21,RRIRCRPPRLPRPRPRPVNDPRP,-0.186
22,RRIRGRPPRLPRPRPRPEGYPRP,0.118
23,RRIRGRPPRLPRPRPRPQVQPRP,0.273
24,RRIRYRPPRLPRPRPRPKWVPRP,-0.0135
25,RRIRARPPRLPRPRPRPRMVPRP,0.686

row,Sequence,shrunken log2 fold change
1,RRIRNRPPRLPRPRPRPGTNPRP,-0.0826
2,RRIRWRPPRLPRPRPRPAFQPRP,0.62
3,RRIRMRPPRLPRPRPRPIQDPRP,-0.114
4,RRIRWRPPRLPRPRPRPADEPRP,0.033
5,RRIRTRPPRLPRPRPRPLVCPRP,0.0682
6,RRIRHRPPRLPRPRPRPIHMPRP,-0.141
7,RRIRHRPPRLPRPRPRPFQQPRP,-0.0263
8,RRIRWRPPRLPRPRPRPIHKPRP,-0.0298
9,RRIRHRPPRLPRPRPRPSWDPRP,-0.205
10,RRIRKRPPRLPRPRPRPEETPRP,2.19
11,RRIRLRPPRLPRPRPRPQWIPRP,-0.0288
12,RRIRYRPPRLPRPRPRPWTTPRP,-0.000803
13,RRIRWRPPRLPRPRPRPCEEPRP,0.0489
14,RRIRERPPRLPRPRPRPQAWPRP,0.0278
15,RRIRFRPPRLPRPRPRPWIKPRP,-0.187
16,RRIRTRPPRLPRPRPRPGHWPRP,0.0708
17,RRIRNRPPRLPRPRPRPSIKPRP,-0.0594
18,RRIRHRPPRLPRPRPRPDFFPRP,-0.26
19,RRIRRRPPRLPRPRPRPGPTPRP,0.678
20,RRIRNRPPRLPRPRPRPCYIPRP,-0.33
21,RRIRWRPPRLPRPRPRPIMWPRP,0.181
22,RRIRSRPPRLPRPRPRPRNKPRP,-0.0701
23,RRIRRRPPRLPRPRPRPPSKPRP,0.172
24,RRIRERPPRLPRPRPRPLAHPRP,-0.368
25,RRIRRRPPRLPRPRPRPETCPRP,-0.00655

row,Sequence,shrunken log2 fold change
1,RRIRFRPPRLPRPRPRPGAIPRP,-0.244
2,RRIRHRPPRLPRPRPRPPDDPRP,0.256
3,RRIRDRPPRLPRPRPRPLGEPRP,0.147
4,RRIRWRPPRLPRPRPRPNHYPRP,-0.605
5,RRIRERPPRLPRPRPRPHEVPRP,-0.0812
6,RRIRDRPPRLPRPRPRPHVAPRP,-0.0272
7,RRIRQRPPRLPRPRPRPPLCPRP,0.28
8,RRIRNRPPRLPRPRPRPSVNPRP,-0.201
9,RRIRSRPPRLPRPRPRPGFRPRP,0.165
10,RRIRMRPPRLPRPRPRPHPLPRP,0.37
11,RRIRCRPPRLPRPRPRPGGYPRP,0.0874
12,RRIRRRPPRLPRPRPRPEHCPRP,-0.00244
13,RRIRDRPPRLPRPRPRPLSFPRP,0.0422
14,RRIRPRPPRLPRPRPRPACDPRP,0.00904
15,RRIRIRPPRLPRPRPRPIVTPRP,-0.429
16,RRIRMRPPRLPRPRPRPLKRPRP,0.0303
17,RRIRTRPPRLPRPRPRPNIQPRP,-0.586
18,RRIRTRPPRLPRPRPRPNGRPRP,-0.0231
19,RRIRDRPPRLPRPRPRPKPAPRP,0.278
20,RRIRTRPPRLPRPRPRPDSYPRP,-0.0896
21,RRIRDRPPRLPRPRPRPEFMPRP,0.419
22,RRIRSRPPRLPRPRPRPSKCPRP,-0.0382
23,RRIRTRPPRLPRPRPRPQEMPRP,-0.0617
24,RRIRYRPPRLPRPRPRPYCVPRP,-1.71
25,RRIRCRPPRLPRPRPRPQAQPRP,0.315
